Assay results: IntAct's records for PubMed 29549094

B1: Syntaxin-17 (Homo sapiens), P56962 (parent)
chain: MSEDEEKVKLRRLEPAIQKFIKIVIPTDLERLRKHQINIEKYQRCRIWDKLHEEHINAGRTVQQLRSNIREIEKLCLKVRKDDLVLLKRMIDPVKEEASAATAEFLQLHLESVEELKKQFNDEETLLQPPLTRSMTVGGAFHTTEAEASSQSLTQIYALPEIPQDQNAAESWETLEADLIELSQLVTDFSLLVNSQQEKIDSIADHVNSAAVNVEEGTKNLGKAAKYKLAALPVAGALIGGMVGGPIGLLAGFKVAGIAAALGGGVLGFTGGKLIQRKKQKMMEKLTSSCPDLPSQTDKKCS
B2: Syntaxin-17 (Homo sapiens), P56962 (parent)
chain: B1 chain
partner: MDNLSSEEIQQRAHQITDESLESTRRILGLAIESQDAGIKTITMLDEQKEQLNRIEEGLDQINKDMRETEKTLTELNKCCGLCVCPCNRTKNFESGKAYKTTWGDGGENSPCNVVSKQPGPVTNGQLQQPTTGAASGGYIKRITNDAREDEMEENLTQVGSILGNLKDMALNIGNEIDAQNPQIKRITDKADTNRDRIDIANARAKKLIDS

Variants of: B1
Conditions: with acsl3_human ACSL3, O95573
acsl3_human ACSL3, O95573, sequence (O95573 whole entry): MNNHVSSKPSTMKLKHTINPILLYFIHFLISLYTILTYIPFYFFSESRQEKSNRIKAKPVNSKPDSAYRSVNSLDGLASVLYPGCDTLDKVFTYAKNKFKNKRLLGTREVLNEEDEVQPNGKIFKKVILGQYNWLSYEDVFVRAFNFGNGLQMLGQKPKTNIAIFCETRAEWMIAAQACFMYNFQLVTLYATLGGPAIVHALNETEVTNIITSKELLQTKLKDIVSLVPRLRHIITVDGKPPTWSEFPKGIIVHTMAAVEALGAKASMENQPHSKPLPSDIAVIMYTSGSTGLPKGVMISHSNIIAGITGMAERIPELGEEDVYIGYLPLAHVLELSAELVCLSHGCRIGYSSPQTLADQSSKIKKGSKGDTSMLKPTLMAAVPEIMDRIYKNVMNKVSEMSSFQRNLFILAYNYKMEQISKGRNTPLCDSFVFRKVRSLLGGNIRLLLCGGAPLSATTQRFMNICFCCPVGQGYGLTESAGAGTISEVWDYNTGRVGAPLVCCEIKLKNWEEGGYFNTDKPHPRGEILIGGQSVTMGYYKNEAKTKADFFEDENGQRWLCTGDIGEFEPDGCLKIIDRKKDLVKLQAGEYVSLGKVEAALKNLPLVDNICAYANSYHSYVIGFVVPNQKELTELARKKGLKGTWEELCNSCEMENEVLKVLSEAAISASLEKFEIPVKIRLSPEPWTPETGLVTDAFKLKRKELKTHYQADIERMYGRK
For MSEDEEKVKLRRLEPAIQKFIKIVIPTDLERLRKHQINIEKYQRCRIWDKLHEEHINAGRTVQQLRSNIREIEKLCLKVRKDDLVLLKRMIDPVKEEASAATAEFLQLHLESVEELKKQFNDEETLLQPPLTRSMTVGGAFHTTEAEASSQSLTQIYALPEIPQDQNAAESWETLEADLIELSQLVTDFSLLVNSQQEKIDSIADHVNSAAVNVEEGTKNLGKAAKYKLAALPVAGALIGGMVGGPIGLLAGFCVAGIAAALGGGVLGFTGGKLIQRKKQKMMEKLTSSCPDLPSQTDKKCS [K254C], the “effect of a mutation on the interaction” value was “with no effect”.

Variants of: B2
Conditions: with snp23_human SNAP23, O00161
With MSEDEEKVKLRRLEPAIQKFIKIVIPTDLERLRKHQINIEKYQRCRIWDKLHEEHINAGRTVQQLRSNIREIEKLCLKVRKDDLVLLKRMIDPVKEEASAATAEFLQLHLESVEELKKQFNDEETLLQPPLTRSMTVGGAFHTTEAEASSQSLTQIYALPEIPQDQNAAESWETLEADLIELSQLVTDFSLLVNSQQEKIDSIADHVNSAAVNVEEGTKNLGKAAKYKLAALPVAGALIGGMVGGPIGLLAGFCVAGIAAALGGGVLGFTGGKLIQRKKQKMMEKLTSSCPDLPSQTDKKCS [K254C] the “effect of a mutation on the interaction” value was “decreasing interaction strength”.
